In patent US20210363177A1:

Assays:
[1] = target: Trastuzumab (glycan-intact) (Homo sapiens)
[2] = target: Pertuzumab
[3] = target: Panitumumab

% DOL 2 (fraction of antibody fully modified with 3-APA, LC-MS) [1] [%]	% DOL 2 (fraction of antibody fully modified with 3-APA, LC-MS) [2] [%]	% DOL 2 (fraction of antibody fully modified with 3-APA, LC-MS) [3] [%]	Substance
81			Activa TI microbial transglutaminase (Ajinomoto) (enzyme)
	100	69	recombinant Microbial transglutaminase from Zedira (catalog number T001) (enzyme)
